Results taken from patent US7657380.

T1: human CD30 (commercial, conjugated to digoxigenin) (human, UniProt P28908 19-379, limits assumed, conjugated to digoxigenin (DIG))
T1 sequence (looked up): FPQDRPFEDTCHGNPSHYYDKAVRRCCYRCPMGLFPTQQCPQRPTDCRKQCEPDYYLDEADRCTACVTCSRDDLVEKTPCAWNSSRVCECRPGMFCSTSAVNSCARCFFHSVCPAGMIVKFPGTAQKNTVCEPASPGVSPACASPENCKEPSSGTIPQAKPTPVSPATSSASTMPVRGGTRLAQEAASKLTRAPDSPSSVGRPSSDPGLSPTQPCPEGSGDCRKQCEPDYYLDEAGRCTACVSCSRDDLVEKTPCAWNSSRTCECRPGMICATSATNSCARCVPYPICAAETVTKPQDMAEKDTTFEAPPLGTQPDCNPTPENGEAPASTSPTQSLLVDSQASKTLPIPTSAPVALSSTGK

B1: AC10 H3/L3.9 (antibody, IgG1, name in Kabat numbering, V domains shown)
VH: QIQLVQSGPEVKKPGASVKVSCKASGYTFTDYYITWVRQAPGQGLEWMGWIYPGSGNTKYNEKFQGRFVFSVDTSASTAYLQISSLKAEDTAVYFCANYGNYWFAYWGQGTLVTVSS
VL: DIVLTQSPDSLAVSLGERATINCKASQSIDFDGDSYMNWYQQKPGQPPKVLIYAASNLESGIPARFSGSGSGTDFTLTINSLEAEDAATYYCQQSNEDPWTFGGGTKVEIK
B2: AC10 H3/L3.12 (antibody, IgG1, name in Kabat numbering, V domains shown)
VH: QIQLVQSGPEVKKPGASVKVSCKASGYTFTDYYITWVRQAPGQGLEWMGWIYPGSGNTKYNEKFQGRFVFSVDTSASTAYLQISSLKAEDTAVYFCANYGNYWFAYWGQGTLVTVSS
VL: DIVLTQSPDSLAVSLGERATINCKASQSVVFDGDSYMNWYQQKPGQPPKVLIYAASNLESGIPARFSGSGSGTDFTLTINSLEAEDAATYYCQQSNEDPWTFGGGTKVEIK
B3: AC10 H3/L3.13 (antibody, IgG1, name in Kabat numbering, V domains shown)
VH: QIQLVQSGPEVKKPGASVKVSCKASGYTFTDYYITWVRQAPGQGLEWMGWIYPGSGNTKYNEKFQGRFVFSVDTSASTAYLQISSLKAEDTAVYFCANYGNYWFAYWGQGTLVTVSS
VL: DIVLTQSPDSLAVSLGERATINCKASQSVDDDGDSYMNWYQQKPGQPPKVLIYAASNLESGIPARFSGSGSGTDFTLTINSLEAEDAATYYCQQSNEDPWTFGGGTKVEIK
B4: AC10 H3/L3.15 (antibody, IgG1, name in Kabat numbering, V domains shown)
VH: QIQLVQSGPEVKKPGASVKVSCKASGYTFTDYYITWVRQAPGQGLEWMGWIYPGSGNTKYNEKFQGRFVFSVDTSASTAYLQISSLKAEDTAVYFCANYGNYWFAYWGQGTLVTVSS
VL: DIVLTQSPDSLAVSLGERATINCKASQSVDYDGDSYMNWYQQKPGQPPKVLIYAASNLESGIPARFSGSGSGTDFTLTINSLEAEDAATYYCQQSNEDPWTFGGGTKVEIK
B5: AC10 H3/L3.16 (antibody, IgG1, name in Kabat numbering, V domains shown)
VH: QIQLVQSGPEVKKPGASVKVSCKASGYTFTDYYITWVRQAPGQGLEWMGWIYPGSGNTKYNEKFQGRFVFSVDTSASTAYLQISSLKAEDTAVYFCANYGNYWFAYWGQGTLVTVSS
VL: DIVLTQSPDSLAVSLGERATINCKASQSVDFNGDSYMNWYQQKPGQPPKVLIYAASNLESGIPARFSGSGSGTDFTLTINSLEAEDAATYYCQQSNEDPWTFGGGTKVEIK
B6: AC10 H3/L3.17 (antibody, IgG1, name in Kabat numbering, V domains shown)
VH: QIQLVQSGPEVKKPGASVKVSCKASGYTFTDYYITWVRQAPGQGLEWMGWIYPGSGNTKYNEKFQGRFVFSVDTSASTAYLQISSLKAEDTAVYFCANYGNYWFAYWGQGTLVTVSS
VL: DIVLTQSPDSLAVSLGERATINCKASQSVDFDGKSYMNWYQQKPGQPPKVLIYAASNLESGIPARFSGSGSGTDFTLTINSLEAEDAATYYCQQSNEDPWTFGGGTKVEIK
B7: AC10 H3/L3.18 (antibody, IgG1, name in Kabat numbering, V domains shown)
VH: QIQLVQSGPEVKKPGASVKVSCKASGYTFTDYYITWVRQAPGQGLEWMGWIYPGSGNTKYNEKFQGRFVFSVDTSASTAYLQISSLKAEDTAVYFCANYGNYWFAYWGQGTLVTVSS
VL: DIVLTQSPDSLAVSLGERATINCKASQSVDFDGNSYMNWYQQKPGQPPKVLIYAASNLESGIPARFSGSGSGTDFTLTINSLEAEDAATYYCQQSNEDPWTFGGGTKVEIK
B8: AC10 H3/L3.19 (antibody, IgG1, name in Kabat numbering, V domains shown)
VH: QIQLVQSGPEVKKPGASVKVSCKASGYTFTDYYITWVRQAPGQGLEWMGWIYPGSGNTKYNEKFQGRFVFSVDTSASTAYLQISSLKAEDTAVYFCANYGNYWFAYWGQGTLVTVSS
VL: DIVLTQSPDSLAVSLGERATINCKASQSVDFDGSSYMNWYQQKPGQPPKVLIYAASNLESGIPARFSGSGSGTDFTLTINSLEAEDAATYYCQQSNEDPWTFGGGTKVEIK

What follows are binders tested against T1, human CD30 (commercial, conjugated to …) (assay: AlphaScreen competition).
For B1, the “Fold IC50 vs H3/L3” value was 0.58 fold.
With B2 the “Fold IC50 vs H3/L3” value was 1.15 fold.
For B3, the “Fold IC50 vs H3/L3” value was 0.32 fold.
B4 was tested, and the “Fold IC50 vs H3/L3” value was 0.63 fold.
In the case of B5, the “Fold IC50 vs H3/L3” value is reported as 1.61 fold.
For B6, the “Fold IC50 vs H3/L3” value was 1.21 fold.
With B7 the “Fold IC50 vs H3/L3” value was 1.45 fold.
In the case of B8, the “Fold IC50 vs H3/L3” value is reported as 1.13 fold.
